The target of test [1] is T1, mouse PVR on CHO-K1 cells (mouse).
T1 construct: whole, on cells; also called CHOK1/PVR; mPVR engineered cell line
The test can be described thus: flow cytometry on CHO-K1 cells expressing murine PVR. In general terms: In flow cytometry, cells or beads pass a laser one at a time.

A further test addresses T2, recombinant CD155.
T2 construct: also called CD155/PVR
The test can be described thus: ELISA: CD155/PVR capture, Fc-HRP detection.

For the next test, the target named is T3, hPDL1-Fc (human, UniProt Q9NZQ7 19-238).
T3 construct: not shown: Fc, not identified
T3 sequence (Q9NZQ7 19-238 limits assumed): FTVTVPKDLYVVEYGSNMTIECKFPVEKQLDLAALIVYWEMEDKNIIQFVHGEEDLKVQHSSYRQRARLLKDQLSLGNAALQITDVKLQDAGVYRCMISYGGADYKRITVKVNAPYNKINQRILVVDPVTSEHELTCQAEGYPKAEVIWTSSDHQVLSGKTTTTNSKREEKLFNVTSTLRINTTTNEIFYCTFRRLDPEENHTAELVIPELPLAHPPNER
The test can be described thus: Dual ELISA: hPDL1-Fc capture, hLTBR-His detection, 6x His HRP (signal needs both hPDL1-Fc and hLTBR-His bound). The method, then:
For each chimeric protein ELISAs were performed under the following conditions: Heavy+Light Chain captured and detected with Fc-HRP (FIG. 13A and FIG. 13B, top left), a murine LTBR-His captured and detected with an antibody directed to murine LIGHT (FIG. 13A, top right) or human LTBR-His captured and detected with biotinylated human LIGHT (FIG. 138, top right), and mPD-L1 captured and detected with an antibody directed to mLIGHT (FIG. 13A, bottom left; “Dual ELISA”) or hPDL1-Fc captured and detected with hLTBR-His/6×His-HRP (FIG. 13A, bottom left; “Dual ELISA”).
On the technique in general: An ELISA detects its analyte on a solid surface through an enzyme-linked reagent.

A further test has as its target T4, human LTBR-His (human, UniProt P36941 31-227, limits assumed).
T4 construct: also called hLTBR-His
Briefly: ELISA: hLTBR-Fc His Tag capture, 'hLIGHT Biotinylated' detection, streptavidin HRP.

The next test concerns the target T5, recombinant human PD-L2 (human, UniProt Q9BQ51 20-220).
T5 sequence (looked up): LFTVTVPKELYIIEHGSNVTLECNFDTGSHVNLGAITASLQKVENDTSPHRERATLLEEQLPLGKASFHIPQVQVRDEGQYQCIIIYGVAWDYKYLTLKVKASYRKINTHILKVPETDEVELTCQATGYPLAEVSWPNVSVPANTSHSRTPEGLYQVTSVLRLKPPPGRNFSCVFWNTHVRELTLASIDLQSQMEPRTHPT
The test can be described thus: biolayer interferometry (Octet), recombinant human PD-L2. Background: Biolayer interferometry detects binding as a change in optical thickness at a sensor tip.

For test [2], the target named is T6, human PD-L1 on CHO-K1 cells (human, UniProt Q9NZQ7 19-290).
T6 construct: whole, on cells; also called hPD-L1 engineered cell line; hPD-L1 over-expressing cell line
T6 sequence (Q9NZQ7 19-290): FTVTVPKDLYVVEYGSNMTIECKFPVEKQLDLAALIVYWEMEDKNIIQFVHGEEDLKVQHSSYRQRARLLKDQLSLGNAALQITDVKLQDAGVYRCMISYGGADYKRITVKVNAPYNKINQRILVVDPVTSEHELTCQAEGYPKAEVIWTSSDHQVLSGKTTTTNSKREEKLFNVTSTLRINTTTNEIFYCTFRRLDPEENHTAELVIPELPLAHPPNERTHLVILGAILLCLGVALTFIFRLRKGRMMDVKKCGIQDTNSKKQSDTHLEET
The test can be described thus: flow cytometry on CHO-K1 cells expressing human PD-L1. The source says: Cells were collected, washed, and stained with antibodies for the detection of the chimeric protein binding by flow cytometry.

Consider two molecules from patent US20240190939A1 (SHATTUCK LABS, published 2024).

T4 sequence (P36941 31-227 limits assumed): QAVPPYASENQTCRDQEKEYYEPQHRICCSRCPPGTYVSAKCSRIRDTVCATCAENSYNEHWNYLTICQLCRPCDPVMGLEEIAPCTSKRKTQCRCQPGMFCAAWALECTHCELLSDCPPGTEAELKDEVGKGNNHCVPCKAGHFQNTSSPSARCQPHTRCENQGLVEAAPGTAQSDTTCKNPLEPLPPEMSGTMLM

B1: murine TIGIT-Fc-LIGHT chimeric protein (Fc fusion)
chain 1: TIDTKRNISAEEGGSVILQCHFSSDTAEVTQVDWKQQDQLLAIYSVDLGWHVASVFSDRVVPGPSLGLTFQSLTMNDTGEYFCTYHTYPGGIYKGRIFLKVQESSDDRNGLAQFQTAPLG
chain 2: LHQRLGDIVAHLPDGGKGSWEKLIQDQRSHQANPAAHLTGANASLIGIGGPLLWETRLGLAFLRGLTYHDGALVTMEPGYYYVYSKVQLSGVGCPQGLANGLPITHGLYKRTSRYPKELELLVSRRSPCGRANSSRVWWDSSFLGGVVHLEAGEEVVVRVPGNRLVRPRDGTRSYFGAFMV
As a reminder, the EC50 is the concentration that produces a half-maximal response. Broadly, the EC50 (read off the curve) is the concentration at which the effect is half-maximal. Molecule B1 registered a 50% effective concentration (EC50) in test [1] of 215 nM. Further, the half-maximal effective concentration (EC50 (read off the curve)) with recombinant CD155 was ~5 nM.

B2: human PD-1-Fc-LIGHT chimeric protein (Fc fusion)
chain: LDSPDRPWNPPTFSPALLVVTEGDNATFTCSFSNTSESFVLNWYRMSPSNQTDKLAAFPEDRSQPGQDCRFRVTQLPNGRDFHMSVVRARRNDSGTYLCGAISLAPKAQIKESLRAELRVTERRAEVPTAHPSPSPRPAGQFQSKYGPPCPPCPAPEFLGGPSVFLFPPKPKDQLMISRTPEVTCVVVDVSQEDPEVQFNWYVDGVEVHNAKTKPREEQFNSTYRVVSVLTVLHQDWLSGKEYKCKVSSKGLPSSIEKTISNATGQPREPQVYTLPPSQEEMTKNQVSLTCLVKGFYPSDIAVEWESNGQPENNYKTTPPVLDSDGSFFLYSRLTVDKSRWQEGNVFSCSVLHEALHNHYTQKSLSLSLGKIEGRMDLQLHWRLGEMVTRLPDGPAGSWEQLIQERRSHEVNPAAHLTGANSSLTGSGGPLLWETQLGLAFLRGLSYHDGALVVTKAGYYYIYSKVQLGGVGCPLGLASTITHGLYKRTPRYPEELELLVSQQSPCGRATSSSRVWWDSSFLGGVVHLEAGEKVVVRVLDERLVRLRDGTRSYFGAFMV
notes: also called hPD-1-Fc-LIGHT
With B2, the results for the concentration giving a half-maximal response (EC50 (read off the curve)) with hPDL1-Fc and in the test with human LTBR-His were ~10 nM and ~20 nM, respectively. Besides, the binding result with recombinant human PD-L2 is on record as “binds”. Besides, in test [2], the concentration giving a half-maximal response (EC50) turned out to be 48 nM.
